Measured values reported in US20120034672A1, “[…] LUCIFERASE VARIANT WITH PROLONGED BIOLUMINESCENCE” (priority 2009, published 2012).

Legend:
[1] = Luminescence activities of MpLuc1 and its variants; format: cell-based; settings: for luminescence stability compared with MpLuc1: microplate reader
Protocol: These variants were individually introduced in equal amounts into living cells, and their relative luminescence intensities were measured.

[2] = Area of luminescence spectrum of GLuc variants (20-minute lysis, luminescence plate reader); format: biochemical
Protocol: In this case, a protocol for immersing the lysate samples in lysis solution for 20 minutes was employed (uniformed cell lysates even whose organelles are lysed). The area of the luminescence spectrum measured by a luminescence plate reader was used as the index of the luminescence intensity.

BALE/c nude mice = test: In vivo imaging of transplanted COS-7 cells expressing GLuc or 8990; settings: subcutaneous COS-7 cells, coelenterazine injected; listed as 8990
Protocol: Subsequently, both of these transformed cells were transplanted into subcutaneous tissues of the back on the left and right sides of BALE/c nude mice (5-week-old female). After waiting 12 hours to allow stabilization of the transplanted cells, an equal amount of substrate (coelenterazine) was injected. Subsequently, the developed bioluminescence intensities were compared (FIG. 16A).

[3] = Temporal changes in bioluminescence intensity after substrate introduction (stability)
Protocol: First, a gene encoding each GLuc variant was cloned into pcDNA 3.1(+), and the same amount of plasmid was introduced into COS-7 cells. The cells were collected 16 hours after the introduction, lysed in cell lysate, and then transferred to a microplate reader. PBS buffer in which coelenterazine is dissolved was set to a substrate injector of the plate reader. At the measurement, after the substrate was automatically injected into each well, changes in the luminescence intensities were measured every 0.05 seconds.
Note that the composition of the modified Matthew's buffer contains the following components: • 100 mM potassium phosphate, 500 mM sodium chloride, 1 mM ethylenediaminetetraacetic acid (EDTA), 0.15 mg/ml porcine gelatin, pH 5.0, 1% Nonyiphenol ethoxylates (Tergitol NP-9) and 1% Antifoam, 25 mM thiourea, and 0.1% DMSO.

[4] = Luminescence spectrum of GLuc variants in COS-7 cell lysates (5-minute lysis, spectrophotometer); format: biochemical
Protocol: Subsequently, cell lysates were prepared from the COS-7 cells in each well (5-minute lysis), and a spectrum was measured in the presence of a luciferase-specific substrate (coelenterazine), using a fluorescence spectrophotometer (F-7000, Hitachi), thereby examining the effect of the introduced mutation. FIGS. 4B-1 and 4C show the results.
Additionally, in the preparation of cell samples, the samples are immersed in a lysis solution for 5 minutes. This allows preparation of non-uniform samples of cells whose organelles are not lysed, by a quick process.

[5] = Luminescence activities of MLuc and its variants; format: cell-based; settings: for luminescence stability of MLuc variants: measured every 0.5 seconds
Protocol: These variants were individually introduced in equal amounts into living cells, and their relative luminescence spectra were measured. […] In order to examine the luminescence stability of the variants produced in the present invention, temporal changes in the luminescence intensity after the introduction of the substrate were measured every 0.5 seconds (FIG. 15B). […] Further, in order to examine the long-wavelength luminescence intensities of the variants, the luminescence intensities of the variants were measured using a 610 nm long-pass filter. […] Results similar to the above tendency were obtained from the measurement of the luminescence intensities before and after the introduction of the substrate (FIG. 15D).

[6] = system: stress hormone receptor (glucocorticoid receptor); test: Single-molecule-format bioluminescent probe response to stress hormone; format: cell-based; settings: with/without stress hormone
Protocol: In order to further examine the advantages of the highly-luminescent variants of the present invention, a single-molecule-format bioluminescent probe was synthesized based on this variant (FIG. 13). […] These probes were inserted into living cells, and the difference in the luminescence intensity was measured under conditions of presence and absence of […].
First, a stress hormone receptor recognizes the stress hormone, and causes an alteration in the structure. As a result, the receptor binds to the adjacent LXXLL motif, which thereby causes recombination of the fragments of the dissected luciferase. At this time, the activity of the stress hormone can be measured using the reversed enzyme activity as the index.
The sensitivity of SimGR3, 8990N, and Mon3N prepared for this experiment to the stress hormone was measured (FIG. 13B).

B1: I114L: MpLuc1 with a mutation introduced into I114; corresponds to I90 of GLuc (protein)
chain: MMEIQVLFALICFALVQANPTENKDDIDIVGVEGKFGTTDLETDLFTIVEDMNVISRDTNLANSDADRGKMPGKKLPLEVLIEMEANARKAGCTRGCLICLSKIKCTAKMKVYLPGRCHDYGGDKKTGQAGIVGAIVDIPEISGFKELGPMEQFIAQVDLCADCTTGCLKGLANVKCSALLKKWLPDRCASFADKIQSEVDNIKGLAGDRKDEL
modifications: MpLuc1 mutant (I114L)
With B1 the “luminescence intensity compared to original MpLuc1” value ([1]; luminescence spectrum) was “higher luminescence intensity” and the “luminescence stability compared with MpLuc1” value [1] was “more stable bioluminescences”.

B2: F89W/I90L: GLuc with isoleucine 90 replaced with leucine and phenylalanine 89 with tryptophan (protein)
chain: MGVKVLFALICIAVAEAKPTENNEDFNIVAVASNFATTDLDADRGKLPGKKLPLEVLKEMEANARKAGCTRGCLICLSHIKCTPKMKKWLPGRCHTYEGDKESAQGGIGEAIVDIPEIPGFKDLEPMEQFIAQVDLCVDCTTGCLKGLANVQCSDLLKKWLPQRCATFASKIQGQVDKIKGAGGDKDEL
modifications: GLuc mutant (F89W/I90L); named 8990
With B2 the “bioluminescence intensity higher than GLuc (area ratio)” value ([2]; plate reader) was 10.2 times, the “bioluminescence intensity (area of spectrum), in words” value ([2]; versus original GLuc) was “particularly high bioluminescence intensity” and the “bioluminescence at transplantation site versus GLuc” value (BALE/c nude mice) was “stronger bioluminescence”. For the same molecule, the “bioluminescence stability and strength” value ([3]; substrate in modified Matthew's buffer) was “very stable and strong bioluminescence”.

B3: F89W: GLuc variant, F at position 89 replaced with W (protein)
chain: MGVKVLFALICIAVAEAKPTENNEDFNIVAVASNFATTDLDADRGKLPGKKLPLEVLKEMEANARKAGCTRGCLICLSHIKCTPKMKKWIPGRCHTYEGDKESAQGGIGEAIVDIPEIPGFKDLEPMEQFIAQVDLCVDCTTGCLKGLANVQCSDLLKKWLPQRCATFASKIQGQVDKIKGAGGDKDEL
modifications: GLuc mutant (F89W)
For B3, the “luminescence intensity higher than GLuc (peak of luminescence spectrum)” value ([4]; COS-7 lysate, coelenterazine) was 9 times, the “luminance (peak of luminescence spectrum), in words” value ([4]; versus original GLuc) was “particularly high luminance” and the “bioluminescence stability, short time” value ([3]; 5 seconds, substrate in PBS buffer) was “relatively unstable luminescence intensity”. For the same molecule, the “bioluminescence stability, long time” value ([3]; 10 minutes, substrate in PBS buffer) was “relatively unstable” and the “decrease of bioluminescence intensity” value ([3]; within 10 minutes after introduction of substrate) was “about 60%”.

B4: MLuc4: Y122W/I123L/H128E/Y130W variant of MLuc (protein)
chain: MDIKVVFTLVFSALVQAKSTEFDPNIDIVGLEGKFGITNLETDLFTIWETMEVMIKADIADTDRASNFVATETDANRGKMPGKKLPLAVIMEMEANAFKAGCTRGCLICLSKIKCTAKMKVWLPGRCEDWGGDKKTGQAGIVGAIVDIPEISGFKEMAPMEQFIAQVDRCASCTTGCLKGLANVKCSELLKKWLPDRCASFADKIQKEVHNIKGMAGDR
modifications: MLuc mutant (Y122W/I123L/H128E/Y130W); MLuc4
notes: Y122W/I123L/H128E/Y130W variant of MLuc
For B4, the “luminescence stability of MLuc variants” value [5] was “most stable bioluminescence” and the “luminescence stability of MLuc variants” value ([5]; listed as Mluc4) was “more stable bioluminescence”.

B5: I123L: MLuc with I123L mutation introduced; corresponds to I90 of GLuc (protein)
chain: MDIKVVFTLVFSALVQAKSTEFDPNIDIVGLEGKFGITNLETDLFTIWETMEVMIKADIADTDRASNFVATETDANRGKMPGKKLPLAVIMEMEANAFKAGCTRGCLICLSKIKCTAKMKVYLPGRCHDYGGDKKTGQAGIVGAIVDIPEISGFKEMAPMEQFIAQVDRCASCTTGCLKGLANVKCSELLKKWLPDRCASFADKIQKEVHNIKGMAGDR
modifications: MLuc mutant (I123L)
For B5, the long-wavelength luminescence intensity ([5]; 610 nm long-pass filter) was “strong bioluminescence in the red wavelength” and the “luminescence intensity compared to original MLuc” value ([5]; luminescence spectrum) was “increased”.

B6: SimGR3: control probe: original GLuc dissected into two fragments with GR LBD and LXXLL motif inserted (protein)
chain: MKPTENNEDFNIVAVASNFATTDLDADRGKLPGKKLPLEVLKEMEANARKAGCTRGCLICLSHIKCTPKMKKFIPGRCHTYEGDKESAQGGGGGTQLTPTLVSLLEVIEPEVLYAGYDSSVPDSTWRIMTTLNMLGGRQVIAAVKWAKAIPGFRNLHLDDQMTLLQYSWMFLMAFALGWRSYRQSSANLLCFAPDLIINEQRMTLPCMYDQCKHMLYVSSELHRLQVSYEEYLCMKTLLLLSSVPKDGLKSQELFDEIRMTYIKELGKAIVKREGNSSQNWQRFYQLTKLLDSMHEVVENLLNYCFQTFLDKTMSIEFPEMLAEIITNQIPKYSNGNIKKLLFHQKVDGGNGGRNALLRYLLDKDGSGGGGIGEAIVDIPEIPGFKDLEPMEQFIAQVDLCVDCTTGCLKGLANVQCSDLLKKWLPQRCATFASKIQGQVDKIKGAGGDKDEL
modifications: SimGR3; an integrated molecule-format probe carrying an LXXLL motif and GLuc.
notes: control probe: original GLuc dissected into two fragments with GR LBD and LXXLL motif inserted
With B6 the “luminescence and stress hormone sensitivity with 610 nm long-pass filter” value [6] was “not significant enough to distinguish between the presence and absence of stress hormone”.

B7: MpLuc4: Y113W/I114L/H119E/Y121W variant of MpLuc1 (protein)
chain: MMEIQVLFALICFALVQANPTENKDDIDIVGVEGKFGTTDLETDLFTIVEDMNVISRDTNLANSDADRGKMPGKKLPLEVLIEMEANARKAGCTRGCLICLSKIKCTAKMKVWLPGRCEDWGGDKKTGQAGIVGAIVDIPEISGFKELGPMEQFIAQVDLCADCTTGCLKGLANVKCSALLKKWLPDRCASFADKIQSEVDNIKGLAGDR
modifications: MpLuc1 mutant (Y113W/I114L/H119E/Y121W); MpLuc4
notes: Y113W/I114L/H119E/Y121W variant of MpLuc1
With B7 the “initial luminescence intensity sustained” value ([1]; 10 seconds after introduction of substrate) was 60% and the “luminescence stability compared with MpLuc1” value [1] was “more stable bioluminescences”.
